The source of these data is the supplement of paper PMC9112550, “Optimization of the antimicrobial peptide Bac7 by deep mutational scanning” (BMC Biology, 2022).
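Also: peptides expressed intracellularly from a pBAD plasmid library in pooled LB shake-flask culture, induced with 0.3% L-arabinose, DNA abundance read by NGS, three biological replicates, DESeq2 with apeglm shrinkage.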

In this series the test system is Escherichia coli TOP10. Kind of series: shrunken log2 fold change of peptide-encoding DNA abundance (4.5 h post-induction vs induction); higher = less antimicrobial activity (less host growth inhibition). Particulars: time post-induction: 4.5 h; library: site-saturation at positions 5, 18, 19, 20.
With RRIRIRPPRLPRPRPRPYDMPRP, the “shrunken log2 fold change” value is -0.19.

With RRIRSRPPRLPRPRPRPHGVPRP, the “shrunken log2 fold change” value was determined as 0.013.

Consider RRIRSRPPRLPRPRPRPSHGPRP, for which the “shrunken log2 fold change” value was -0.19.

For RRIRGRPPRLPRPRPRPYRAPRP, the “shrunken log2 fold change” value was -0.233.

Regarding RRIRQRPPRLPRPRPRPDLRPRP, the “shrunken log2 fold change” value was -0.0102.

For the sequence RRIRMRPPRLPRPRPRPHNYPRP, the “shrunken log2 fold change” value was -0.0828.

Regarding RRIRFRPPRLPRPRPRPSREPRP, the “shrunken log2 fold change” value worked out at 1.17.

Take RRIRMRPPRLPRPRPRPNFWPRP: the “shrunken log2 fold change” value is 0.294.

With RRIRPRPPRLPRPRPRPLDWPRP, the “shrunken log2 fold change” value came to 0.349.

For the sequence RRIRWRPPRLPRPRPRPNWGPRP, the “shrunken log2 fold change” value turned out to be 0.105.

Turning to RRIRIRPPRLPRPRPRPLTHPRP, the “shrunken log2 fold change” value is -0.358.

For RRIRRRPPRLPRPRPRPDVCPRP, the “shrunken log2 fold change” value was -0.000628.

Consider RRIRSRPPRLPRPRPRPASVPRP, for which the “shrunken log2 fold change” value came to 0.377.

Take RRIRVRPPRLPRPRPRPFDKPRP: the “shrunken log2 fold change” value was -0.0577.

RRIRFRPPRLPRPRPRPLAKPRP: the “shrunken log2 fold change” value was 0.182.

With RRIRNRPPRLPRPRPRPALMPRP, the “shrunken log2 fold change” value was determined as 0.15.

As to RRIRGRPPRLPRPRPRPHKFPRP, the “shrunken log2 fold change” value is 0.151.

In the case of RRIRIRPPRLPRPRPRPSPFPRP, the “shrunken log2 fold change” value is -0.81.

For the sequence RRIRHRPPRLPRPRPRPRTEPRP, the “shrunken log2 fold change” value was found to be 0.218.

RRIRDRPPRLPRPRPRPYAGPRP: the “shrunken log2 fold change” value came out at 0.0325.

With RRIRNRPPRLPRPRPRPRNHPRP, the “shrunken log2 fold change” value was -0.0174.

RRIRTRPPRLPRPRPRPETWPRP: the “shrunken log2 fold change” value is -0.0622.

RRIRLRPPRLPRPRPRPFFEPRP: the “shrunken log2 fold change” value was 0.058.

Consider RRIRERPPRLPRPRPRPPDNPRP, for which the “shrunken log2 fold change” value was 0.197.

With RRIRHRPPRLPRPRPRPKAPPRP, the “shrunken log2 fold change” value was 0.0258.

Consider RRIRFRPPRLPRPRPRPLLAPRP, for which the “shrunken log2 fold change” value amounted to 0.176.

Take RRIRDRPPRLPRPRPRPHQTPRP: the “shrunken log2 fold change” value is 0.0267.

As to RRIRHRPPRLPRPRPRPNQPPRP, the “shrunken log2 fold change” value was 0.00401.

For the sequence RRIRERPPRLPRPRPRPQPMPRP, the “shrunken log2 fold change” value was -0.185.

For the sequence RRIRMRPPRLPRPRPRPYKNPRP, the “shrunken log2 fold change” value is -0.259.

As for RRIRVRPPRLPRPRPRPHAWPRP, the “shrunken log2 fold change” value is 0.0267.

With RRIRIRPPRLPRPRPRPDFHPRP, the “shrunken log2 fold change” value was -0.649.

As for RRIRFRPPRLPRPRPRPAEAPRP, the “shrunken log2 fold change” value stood at 0.254.

Turning to RRIRCRPPRLPRPRPRPSMAPRP, the “shrunken log2 fold change” value was -0.224.

Consider RRIRQRPPRLPRPRPRPYMCPRP, for which the “shrunken log2 fold change” value is -0.184.

As for RRIRYRPPRLPRPRPRPPCLPRP, the “shrunken log2 fold change” value is -0.288.

Turning to RRIRGRPPRLPRPRPRPKAAPRP, the “shrunken log2 fold change” value was 1.26.

RRIRKRPPRLPRPRPRPMWGPRP: the “shrunken log2 fold change” value was -0.0954.

RRIRIRPPRLPRPRPRPADWPRP: the “shrunken log2 fold change” value worked out at 0.218.

Take RRIRFRPPRLPRPRPRPANHPRP: the “shrunken log2 fold change” value was -0.264.

Take RRIRVRPPRLPRPRPRPEGCPRP: the “shrunken log2 fold change” value was found to be 0.132.

For RRIRCRPPRLPRPRPRPMNSPRP, the “shrunken log2 fold change” value is -0.141.

As to RRIRERPPRLPRPRPRPAGNPRP, the “shrunken log2 fold change” value was -0.0376.

For RRIRDRPPRLPRPRPRPPWGPRP, the “shrunken log2 fold change” value turned out to be 0.344.

Turning to RRIRLRPPRLPRPRPRPRDEPRP, the “shrunken log2 fold change” value is 0.162.

Consider RRIRVRPPRLPRPRPRPRRLPRP, for which the “shrunken log2 fold change” value came out at 0.135.

RRIRQRPPRLPRPRPRPMQVPRP: the “shrunken log2 fold change” value was -0.0356.

For the sequence RRIRTRPPRLPRPRPRPWALPRP, the “shrunken log2 fold change” value is -0.23.

In the case of RRIRVRPPRLPRPRPRPAKRPRP, the “shrunken log2 fold change” value is 0.615.

On to RRIRWRPPRLPRPRPRPFIGPRP, for which the “shrunken log2 fold change” value was -0.38.

Take RRIRRRPPRLPRPRPRPVRTPRP: the “shrunken log2 fold change” value is 0.328.

With RRIRNRPPRLPRPRPRPIIHPRP, the “shrunken log2 fold change” value was -0.712.

With RRIRSRPPRLPRPRPRPCGEPRP, the “shrunken log2 fold change” value turned out to be 0.385.

RRIRDRPPRLPRPRPRPQAGPRP: the “shrunken log2 fold change” value turned out to be 0.152.

For RRIRDRPPRLPRPRPRPAQKPRP, the “shrunken log2 fold change” value came to 0.0225.

Turning to RRIRLRPPRLPRPRPRPAVDPRP, the “shrunken log2 fold change” value amounted to 0.163.

Turning to RRIRIRPPRLPRPRPRPSYRPRP, the “shrunken log2 fold change” value was -0.0544.

As to RRIRTRPPRLPRPRPRPPDQPRP, the “shrunken log2 fold change” value turned out to be 0.601.

Turning to RRIRDRPPRLPRPRPRPWHYPRP, the “shrunken log2 fold change” value is -0.225.

For RRIRDRPPRLPRPRPRPADDPRP, the “shrunken log2 fold change” value amounted to 0.637.

For the sequence RRIRFRPPRLPRPRPRPMNIPRP, the “shrunken log2 fold change” value is -0.192.

In the case of RRIRWRPPRLPRPRPRPRIEPRP, the “shrunken log2 fold change” value was determined as 0.186.

For RRIRMRPPRLPRPRPRPQCWPRP, the “shrunken log2 fold change” value is 0.14.

For the sequence RRIRKRPPRLPRPRPRPGDHPRP, the “shrunken log2 fold change” value worked out at 0.014.

Consider RRIRFRPPRLPRPRPRPWDKPRP, for which the “shrunken log2 fold change” value is -1.33.

As for RRIRARPPRLPRPRPRPPHPPRP, the “shrunken log2 fold change” value was determined as 0.527.

Take RRIRRRPPRLPRPRPRPSDIPRP: the “shrunken log2 fold change” value was -1.08.

Turning to RRIRSRPPRLPRPRPRPTWSPRP, the “shrunken log2 fold change” value is -0.0422.

RRIRRRPPRLPRPRPRPFEMPRP: the “shrunken log2 fold change” value came out at 0.0983.

For the sequence RRIRMRPPRLPRPRPRPDPTPRP, the “shrunken log2 fold change” value is 0.0984.

Take RRIRERPPRLPRPRPRPKNAPRP: the “shrunken log2 fold change” value is -0.352.

With RRIRWRPPRLPRPRPRPLSFPRP, the “shrunken log2 fold change” value is -0.0327.

For RRIRCRPPRLPRPRPRPPRQPRP, the “shrunken log2 fold change” value is 0.589.

In the case of RRIRVRPPRLPRPRPRPCREPRP, the “shrunken log2 fold change” value was -0.0897.

As for RRIRHRPPRLPRPRPRPACTPRP, the “shrunken log2 fold change” value was found to be 0.0224.

As to RRIRRRPPRLPRPRPRPGPSPRP, the “shrunken log2 fold change” value came out at 0.442.

As to RRIRFRPPRLPRPRPRPGWDPRP, the “shrunken log2 fold change” value was 0.0298.

On to RRIRCRPPRLPRPRPRPYCWPRP, for which the “shrunken log2 fold change” value was -0.331.

On to RRIRQRPPRLPRPRPRPYVNPRP, for which the “shrunken log2 fold change” value is -0.00544.

Turning to RRIRYRPPRLPRPRPRPNLCPRP, the “shrunken log2 fold change” value is -1.35.

In the case of RRIRWRPPRLPRPRPRPIHWPRP, the “shrunken log2 fold change” value amounted to 0.202.

As to RRIRARPPRLPRPRPRPDAWPRP, the “shrunken log2 fold change” value worked out at 1.05.

With RRIRFRPPRLPRPRPRPHDPPRP, the “shrunken log2 fold change” value is -0.1.

With RRIRARPPRLPRPRPRPNMFPRP, the “shrunken log2 fold change” value is -0.0712.

RRIRWRPPRLPRPRPRPNSQPRP: the “shrunken log2 fold change” value was -0.0188.

As to RRIRFRPPRLPRPRPRPRSSPRP, the “shrunken log2 fold change” value is 0.12.

On to RRIRFRPPRLPRPRPRPHLVPRP, for which the “shrunken log2 fold change” value is -0.33.

For the sequence RRIRDRPPRLPRPRPRPLILPRP, the “shrunken log2 fold change” value was -0.096.

With RRIRCRPPRLPRPRPRPSGGPRP, the “shrunken log2 fold change” value is -0.0862.

In the case of RRIRIRPPRLPRPRPRPAGEPRP, the “shrunken log2 fold change” value is 0.171.

As for RRIRMRPPRLPRPRPRPSVSPRP, the “shrunken log2 fold change” value was -0.35.

As to RRIRMRPPRLPRPRPRPRNFPRP, the “shrunken log2 fold change” value is 1.12.

As for RRIRQRPPRLPRPRPRPDAAPRP, the “shrunken log2 fold change” value was 1.08.

In the case of RRIRARPPRLPRPRPRPGYSPRP, the “shrunken log2 fold change” value was -0.35.

RRIRSRPPRLPRPRPRPTVDPRP: the “shrunken log2 fold change” value turned out to be 0.16.

For the sequence RRIRARPPRLPRPRPRPVQPPRP, the “shrunken log2 fold change” value came to 0.392.

RRIRSRPPRLPRPRPRPPQTPRP: the “shrunken log2 fold change” value is 0.365.

Consider RRIRKRPPRLPRPRPRPGPWPRP, for which the “shrunken log2 fold change” value amounted to 0.63.

On to RRIRNRPPRLPRPRPRPVKRPRP, for which the “shrunken log2 fold change” value came to 0.0962.

On to RRIRGRPPRLPRPRPRPAKHPRP, for which the “shrunken log2 fold change” value stood at 0.209.

For the sequence RRIRLRPPRLPRPRPRPTWVPRP, the “shrunken log2 fold change” value was 0.0425.

Take RRIRIRPPRLPRPRPRPKDKPRP: the “shrunken log2 fold change” value is -0.747.

As to RRIRHRPPRLPRPRPRPPAVPRP, the “shrunken log2 fold change” value was 0.373.

As for RRIRLRPPRLPRPRPRPDPFPRP, the “shrunken log2 fold change” value was -0.228.

For the sequence RRIRTRPPRLPRPRPRPFIKPRP, the “shrunken log2 fold change” value is -0.57.

Regarding RRIRGRPPRLPRPRPRPVWAPRP, the “shrunken log2 fold change” value is 0.591.

Regarding RRIRQRPPRLPRPRPRPILDPRP, the “shrunken log2 fold change” value is 0.0277.

For the sequence RRIRYRPPRLPRPRPRPCAHPRP, the “shrunken log2 fold change” value was -0.0966.

Regarding RRIRQRPPRLPRPRPRPQMHPRP, the “shrunken log2 fold change” value was -0.168.

Consider RRIRQRPPRLPRPRPRPYYSPRP, for which the “shrunken log2 fold change” value is -0.39.

With RRIRTRPPRLPRPRPRPPRHPRP, the “shrunken log2 fold change” value worked out at 0.152.

Take RRIRHRPPRLPRPRPRPEMNPRP: the “shrunken log2 fold change” value was -0.0935.

RRIRTRPPRLPRPRPRPLMSPRP: the “shrunken log2 fold change” value was 0.0356.

Turning to RRIRWRPPRLPRPRPRPSCMPRP, the “shrunken log2 fold change” value turned out to be 0.11.

Consider RRIRRRPPRLPRPRPRPWKKPRP, for which the “shrunken log2 fold change” value was -0.0288.

Take RRIRQRPPRLPRPRPRPPIPPRP: the “shrunken log2 fold change” value was -0.0174.

For RRIRNRPPRLPRPRPRPKGIPRP, the “shrunken log2 fold change” value turned out to be 0.0346.

Regarding RRIRNRPPRLPRPRPRPMYFPRP, the “shrunken log2 fold change” value was -0.0737.

Take RRIRQRPPRLPRPRPRPATTPRP: the “shrunken log2 fold change” value was 0.351.

For the sequence RRIRWRPPRLPRPRPRPTCQPRP, the “shrunken log2 fold change” value was 0.729.

Turning to RRIRNRPPRLPRPRPRPCKLPRP, the “shrunken log2 fold change” value is -0.362.

RRIRTRPPRLPRPRPRPVCEPRP: the “shrunken log2 fold change” value came out at 0.243.

For the sequence RRIRVRPPRLPRPRPRPNWTPRP, the “shrunken log2 fold change” value turned out to be 0.0136.

On to RRIRGRPPRLPRPRPRPTKDPRP, for which the “shrunken log2 fold change” value amounted to 0.7.

On to RRIRRRPPRLPRPRPRPMYRPRP, for which the “shrunken log2 fold change” value is 0.0278.
